Values of other authors, collected in article PMC2739727.

How the values were obtained:
[1] = target: IL-13Rα1/IL-4Rα (Homo sapiens) (UniProt P78552)
IL-13Rα2 (Homo sapiens) = IL-13Rα2 (Homo sapiens) (UniProt Q14627)
Chain of UniProt Q14627 (Q14627 27-343): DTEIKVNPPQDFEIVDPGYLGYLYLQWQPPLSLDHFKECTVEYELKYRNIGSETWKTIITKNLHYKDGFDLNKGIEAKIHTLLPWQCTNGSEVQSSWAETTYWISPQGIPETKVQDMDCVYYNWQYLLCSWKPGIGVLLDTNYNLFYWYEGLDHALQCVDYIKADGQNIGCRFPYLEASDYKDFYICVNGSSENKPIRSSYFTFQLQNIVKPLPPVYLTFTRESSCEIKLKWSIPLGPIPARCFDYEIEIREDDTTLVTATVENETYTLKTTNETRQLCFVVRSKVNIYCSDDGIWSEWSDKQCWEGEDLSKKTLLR

Chain of UniProt P78552 (P78552 22-343, chain 1 of 2): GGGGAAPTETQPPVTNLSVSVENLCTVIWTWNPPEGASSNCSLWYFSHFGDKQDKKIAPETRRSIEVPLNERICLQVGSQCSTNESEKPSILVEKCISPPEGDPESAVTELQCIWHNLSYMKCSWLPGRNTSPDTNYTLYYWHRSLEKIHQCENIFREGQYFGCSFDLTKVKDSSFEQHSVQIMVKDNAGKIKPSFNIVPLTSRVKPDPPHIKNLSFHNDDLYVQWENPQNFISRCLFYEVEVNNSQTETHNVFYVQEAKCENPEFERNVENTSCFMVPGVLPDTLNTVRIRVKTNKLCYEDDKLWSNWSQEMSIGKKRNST
Chain of UniProt P78552 (P24394 26-232, chain 2 of 2, further chain): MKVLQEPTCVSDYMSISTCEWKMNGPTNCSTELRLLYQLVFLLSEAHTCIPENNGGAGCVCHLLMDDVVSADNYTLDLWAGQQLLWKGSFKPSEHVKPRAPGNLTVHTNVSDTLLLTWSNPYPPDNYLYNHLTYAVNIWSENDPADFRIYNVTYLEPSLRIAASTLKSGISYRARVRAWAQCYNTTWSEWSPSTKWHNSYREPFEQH

IL-13 (from UniProt P35225)
Kd [1]: 200 pM | Kd (IL-13Rα2 (Homo sapiens)): 200 pM
